Test results as given in patent US20140315253A1.

Target: type I collagen (collagen membrane or collagen gel)
Test: modified ELISA on type I collagen membrane (6.0 mg), Kd calculated by Matsushita's method

| Substance | Kd |
| --- | --- |
| CBD-NGF, histidine-affinity tagged fusion protein comprising the collagen binding domain and beta-NGF mature peptide | 510 nM |
| NAT-NGF, beta-NGF mature peptide with the histidine-affinity tag (ligand) | 1500 nM |
